Like-named read-outs stand apart in the source and are kept apart here.
Experiments:
Experiment in all cases: fluorescence anisotropy
[1] = molecular target: T1, RecBCD (prokaryote (species  in the …, UniProt P08394;P07648;P04993 1-1180;1-1122;1-608))
[2] = molecular target: T1, RecBCD; remark: listed apart in the source
[3] = molecular target: T1, RecBCD; remark: listed apart in the source

T1 sequence (P08394 whole entry, chain 1 of 3): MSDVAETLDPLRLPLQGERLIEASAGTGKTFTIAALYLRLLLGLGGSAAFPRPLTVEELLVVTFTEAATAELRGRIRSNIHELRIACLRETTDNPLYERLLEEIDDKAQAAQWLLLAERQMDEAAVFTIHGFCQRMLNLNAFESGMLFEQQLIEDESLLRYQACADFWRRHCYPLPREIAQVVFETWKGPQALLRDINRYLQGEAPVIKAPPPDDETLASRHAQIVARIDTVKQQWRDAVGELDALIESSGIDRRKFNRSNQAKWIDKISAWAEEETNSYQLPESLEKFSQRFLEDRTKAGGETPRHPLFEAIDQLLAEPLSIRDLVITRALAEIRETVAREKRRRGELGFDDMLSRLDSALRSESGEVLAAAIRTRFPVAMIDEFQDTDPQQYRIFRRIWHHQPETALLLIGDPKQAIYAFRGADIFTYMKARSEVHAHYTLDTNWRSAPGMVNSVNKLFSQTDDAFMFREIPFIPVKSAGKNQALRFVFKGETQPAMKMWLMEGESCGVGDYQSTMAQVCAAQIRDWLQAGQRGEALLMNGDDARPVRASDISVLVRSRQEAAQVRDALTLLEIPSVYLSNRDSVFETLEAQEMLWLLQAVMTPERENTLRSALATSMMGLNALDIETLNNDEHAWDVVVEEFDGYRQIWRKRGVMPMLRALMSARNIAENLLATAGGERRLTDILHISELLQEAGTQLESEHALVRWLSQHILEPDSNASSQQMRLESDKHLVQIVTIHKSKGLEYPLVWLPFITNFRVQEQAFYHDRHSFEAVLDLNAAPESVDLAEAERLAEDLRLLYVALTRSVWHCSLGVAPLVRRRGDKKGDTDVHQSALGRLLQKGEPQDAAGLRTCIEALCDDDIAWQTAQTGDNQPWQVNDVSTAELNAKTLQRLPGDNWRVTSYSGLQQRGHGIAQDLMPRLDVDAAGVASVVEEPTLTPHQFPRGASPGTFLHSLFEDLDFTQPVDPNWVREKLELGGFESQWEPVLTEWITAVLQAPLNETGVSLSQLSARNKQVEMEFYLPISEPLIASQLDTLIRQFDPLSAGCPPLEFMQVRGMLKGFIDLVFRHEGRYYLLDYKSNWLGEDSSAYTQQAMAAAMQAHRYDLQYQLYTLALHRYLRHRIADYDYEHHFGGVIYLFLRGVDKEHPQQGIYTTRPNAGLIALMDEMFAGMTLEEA
T1 sequence (P07648 whole entry, chain 2 of 3): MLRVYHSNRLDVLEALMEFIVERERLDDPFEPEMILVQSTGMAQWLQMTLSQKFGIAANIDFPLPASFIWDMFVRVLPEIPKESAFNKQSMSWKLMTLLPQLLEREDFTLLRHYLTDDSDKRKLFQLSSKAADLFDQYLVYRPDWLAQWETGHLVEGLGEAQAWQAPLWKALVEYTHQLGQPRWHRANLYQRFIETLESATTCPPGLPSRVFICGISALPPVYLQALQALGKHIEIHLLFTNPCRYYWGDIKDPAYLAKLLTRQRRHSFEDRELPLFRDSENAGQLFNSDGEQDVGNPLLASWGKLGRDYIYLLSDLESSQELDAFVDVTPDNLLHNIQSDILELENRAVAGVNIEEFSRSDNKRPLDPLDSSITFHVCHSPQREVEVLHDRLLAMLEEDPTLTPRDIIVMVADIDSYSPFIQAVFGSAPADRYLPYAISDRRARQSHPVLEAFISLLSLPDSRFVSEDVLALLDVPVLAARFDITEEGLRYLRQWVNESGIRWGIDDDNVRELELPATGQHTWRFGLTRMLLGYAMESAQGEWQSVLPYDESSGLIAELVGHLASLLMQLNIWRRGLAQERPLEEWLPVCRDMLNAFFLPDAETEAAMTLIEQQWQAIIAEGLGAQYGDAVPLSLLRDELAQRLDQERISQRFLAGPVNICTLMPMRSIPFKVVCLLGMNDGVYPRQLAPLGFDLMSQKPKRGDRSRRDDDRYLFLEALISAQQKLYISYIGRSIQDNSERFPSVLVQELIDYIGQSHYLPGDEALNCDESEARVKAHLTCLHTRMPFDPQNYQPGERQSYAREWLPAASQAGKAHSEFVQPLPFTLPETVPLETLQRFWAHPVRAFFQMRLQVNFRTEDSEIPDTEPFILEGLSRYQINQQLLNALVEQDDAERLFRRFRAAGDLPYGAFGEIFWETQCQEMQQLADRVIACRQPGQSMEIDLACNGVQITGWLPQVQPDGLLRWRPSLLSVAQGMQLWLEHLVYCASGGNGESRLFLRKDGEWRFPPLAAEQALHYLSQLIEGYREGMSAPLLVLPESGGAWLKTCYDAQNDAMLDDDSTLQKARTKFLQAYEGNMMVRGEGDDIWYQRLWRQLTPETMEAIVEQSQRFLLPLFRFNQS
T1 sequence (P04993 whole entry, chain 3 of 3): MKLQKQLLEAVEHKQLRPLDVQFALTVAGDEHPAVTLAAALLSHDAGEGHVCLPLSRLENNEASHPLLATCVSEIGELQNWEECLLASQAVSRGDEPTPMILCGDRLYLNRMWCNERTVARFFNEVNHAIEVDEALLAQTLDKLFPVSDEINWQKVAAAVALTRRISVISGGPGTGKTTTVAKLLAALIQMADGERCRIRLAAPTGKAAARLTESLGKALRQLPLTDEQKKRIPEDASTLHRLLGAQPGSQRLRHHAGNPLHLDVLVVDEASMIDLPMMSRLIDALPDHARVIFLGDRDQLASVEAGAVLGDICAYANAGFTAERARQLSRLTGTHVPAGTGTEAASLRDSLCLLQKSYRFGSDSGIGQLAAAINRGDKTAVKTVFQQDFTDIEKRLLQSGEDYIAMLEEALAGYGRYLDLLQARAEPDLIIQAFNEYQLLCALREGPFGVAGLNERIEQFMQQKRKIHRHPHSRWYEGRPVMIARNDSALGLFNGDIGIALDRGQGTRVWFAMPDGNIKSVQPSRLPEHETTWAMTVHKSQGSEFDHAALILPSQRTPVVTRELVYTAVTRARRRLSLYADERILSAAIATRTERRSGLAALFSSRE

B1: hpDNA-F (structured_DNA)
DNA: GATGTGACTCGTTACCTGAGTTTTTACTCAGGTAACGAGTCACATC
Question: Does B1 bind [1]?
Answer: binds

B2: ssDNA-F (ssDNA)
DNA: AGAGAGAGAGAGAGAGAGAGAGAG
Question: Does B2 bind [2]?
Answer: binds

B3: 3ohDNA-F (structured_DNA)
DNA: CATGTGACTCGTTACCTGAGTTTTTACTCAGGTAACGAGTCACATGATATATATAT
Question: For B3, which Kd [3] is on record?
Answer: 166 ± 41 nM

— article PMC11039987
